# Measured values from patent US20160009788A1 (UNITED STATES OF AMERICA AS REPRESENTED BY THE SECRETARY …, published 2016).
# T1: NV VP1 G365N mutant (Norwalk virus, UniProt Q83884 1-530)
# T1 construct: whole, on cells; Expressed in transfected Vero cells, methanol-fixed, immunofluorescence
# T1 sequence (looked up): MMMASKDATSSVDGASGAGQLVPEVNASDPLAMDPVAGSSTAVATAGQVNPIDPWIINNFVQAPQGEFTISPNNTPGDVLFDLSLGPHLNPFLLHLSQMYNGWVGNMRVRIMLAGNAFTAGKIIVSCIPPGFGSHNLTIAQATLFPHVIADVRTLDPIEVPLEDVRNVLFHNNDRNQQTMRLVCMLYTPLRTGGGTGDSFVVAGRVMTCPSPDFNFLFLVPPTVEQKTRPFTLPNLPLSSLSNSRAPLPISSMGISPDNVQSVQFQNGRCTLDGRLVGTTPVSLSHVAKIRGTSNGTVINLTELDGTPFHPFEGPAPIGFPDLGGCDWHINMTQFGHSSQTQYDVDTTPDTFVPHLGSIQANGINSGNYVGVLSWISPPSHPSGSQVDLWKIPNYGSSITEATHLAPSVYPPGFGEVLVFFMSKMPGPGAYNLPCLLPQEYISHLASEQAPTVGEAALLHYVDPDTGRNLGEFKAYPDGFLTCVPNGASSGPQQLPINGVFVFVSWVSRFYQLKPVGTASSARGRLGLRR
# T2: NV VP1 G365N/V370I double mutant (Norwalk virus, UniProt Q83884 1-530)
# T2 construct: whole, on cells; Expressed in transfected Vero cells, methanol-fixed, immunofluorescence
# T2 sequence (looked up): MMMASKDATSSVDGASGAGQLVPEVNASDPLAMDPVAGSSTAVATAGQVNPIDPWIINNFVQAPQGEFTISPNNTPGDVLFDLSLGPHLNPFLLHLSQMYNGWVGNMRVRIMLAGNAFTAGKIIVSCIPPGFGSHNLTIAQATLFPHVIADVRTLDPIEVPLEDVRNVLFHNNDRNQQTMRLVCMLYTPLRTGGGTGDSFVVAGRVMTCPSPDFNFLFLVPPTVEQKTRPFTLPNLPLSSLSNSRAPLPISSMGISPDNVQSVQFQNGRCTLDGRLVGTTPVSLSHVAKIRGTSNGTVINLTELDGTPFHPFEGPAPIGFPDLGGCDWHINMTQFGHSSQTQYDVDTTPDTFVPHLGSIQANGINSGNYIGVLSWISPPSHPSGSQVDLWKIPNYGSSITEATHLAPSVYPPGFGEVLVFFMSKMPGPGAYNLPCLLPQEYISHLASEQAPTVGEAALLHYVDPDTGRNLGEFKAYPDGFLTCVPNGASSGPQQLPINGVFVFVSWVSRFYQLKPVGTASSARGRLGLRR
# T3: NV VP1 G365N/I376V double mutant (Norwalk virus, UniProt Q83884 1-530)
# T3 construct: whole, on cells; Expressed in transfected Vero cells, methanol-fixed, immunofluorescence
# T3 sequence (looked up): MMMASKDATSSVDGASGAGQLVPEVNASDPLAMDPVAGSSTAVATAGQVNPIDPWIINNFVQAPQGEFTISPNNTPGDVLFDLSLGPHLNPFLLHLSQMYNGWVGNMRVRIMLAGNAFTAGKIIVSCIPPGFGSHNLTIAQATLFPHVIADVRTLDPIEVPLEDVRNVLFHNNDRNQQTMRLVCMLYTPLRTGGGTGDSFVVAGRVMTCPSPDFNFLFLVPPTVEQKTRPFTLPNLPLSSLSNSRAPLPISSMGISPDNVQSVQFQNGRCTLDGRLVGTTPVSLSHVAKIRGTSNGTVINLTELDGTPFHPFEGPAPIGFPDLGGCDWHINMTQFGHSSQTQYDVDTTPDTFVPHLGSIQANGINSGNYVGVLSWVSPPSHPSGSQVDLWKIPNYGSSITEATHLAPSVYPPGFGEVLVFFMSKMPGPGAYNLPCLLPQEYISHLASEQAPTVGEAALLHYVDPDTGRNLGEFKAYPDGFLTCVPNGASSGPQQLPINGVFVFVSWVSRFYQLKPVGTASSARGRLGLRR
# T4: NV VP1 G365N/V370I/I376V triple mutant (Norwalk virus, UniProt Q83884 1-530)
# T4 construct: whole, on cells; Expressed in transfected Vero cells, methanol-fixed, immunofluorescence
# T4 sequence (looked up): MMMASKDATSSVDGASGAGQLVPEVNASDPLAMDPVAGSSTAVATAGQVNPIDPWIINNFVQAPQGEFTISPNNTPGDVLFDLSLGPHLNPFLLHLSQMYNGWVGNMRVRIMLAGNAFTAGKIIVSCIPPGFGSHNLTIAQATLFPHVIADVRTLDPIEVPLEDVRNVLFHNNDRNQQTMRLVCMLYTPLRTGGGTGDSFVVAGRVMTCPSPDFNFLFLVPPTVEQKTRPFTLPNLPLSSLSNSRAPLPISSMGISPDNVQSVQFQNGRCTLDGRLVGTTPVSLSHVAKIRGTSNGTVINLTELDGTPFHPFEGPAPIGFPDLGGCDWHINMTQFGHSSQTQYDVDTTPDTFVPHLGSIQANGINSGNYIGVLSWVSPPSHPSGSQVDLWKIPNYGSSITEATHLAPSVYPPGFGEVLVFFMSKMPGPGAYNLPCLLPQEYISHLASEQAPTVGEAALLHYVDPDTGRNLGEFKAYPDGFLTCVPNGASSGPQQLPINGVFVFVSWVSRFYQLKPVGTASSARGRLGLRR
# T5: Norwalk virus (NV, GI.1) recombinant virus-like particles (capsid protein VP1) (Norwalk virus, UniProt Q83884 1-530)
# T5 construct: also called NV rVLP; NV-VLP
# T5 sequence: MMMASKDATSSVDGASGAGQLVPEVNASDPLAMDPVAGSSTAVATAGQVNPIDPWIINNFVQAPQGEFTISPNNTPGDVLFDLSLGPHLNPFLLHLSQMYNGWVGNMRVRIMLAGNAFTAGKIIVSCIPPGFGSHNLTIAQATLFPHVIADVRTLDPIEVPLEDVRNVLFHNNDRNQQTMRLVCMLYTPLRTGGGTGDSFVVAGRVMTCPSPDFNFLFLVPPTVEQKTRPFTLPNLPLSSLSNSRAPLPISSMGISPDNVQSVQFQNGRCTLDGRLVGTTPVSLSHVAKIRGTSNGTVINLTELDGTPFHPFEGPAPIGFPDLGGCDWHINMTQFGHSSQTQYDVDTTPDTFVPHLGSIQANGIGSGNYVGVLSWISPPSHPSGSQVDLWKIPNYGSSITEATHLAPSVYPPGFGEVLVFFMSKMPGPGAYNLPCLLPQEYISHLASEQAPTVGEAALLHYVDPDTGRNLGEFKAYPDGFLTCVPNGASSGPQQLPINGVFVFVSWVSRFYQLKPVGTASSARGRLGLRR
# What was measured:
# NV VP1 G365N mutant = target: T1, NV VP1 G365N mutant; test: immunofluorescence on transfected Vero cells
# [1] = target: T2, NV VP1 G365N/V370I double mutant; test: immunofluorescence on transfected Vero cells
# [2] = target: T3, NV VP1 G365N/I376V double mutant; test: immunofluorescence on transfected Vero cells
# [3] = target: T4, NV VP1 G365N/V370I/I376V triple mutant; test: immunofluorescence on transfected Vero cells
# bovine serum albumin = target: T6, bovine serum albumin (bovine, UniProt P02769 25-607); test: ELISA, antigen on the solid phase, soluble Fab
# T6 construct: Control antigen; also called BSA
# [4] = target: T5, Norwalk virus (NV, GI.1) recombinant …; test: SPR (Biacore 1000), NV rVLP amine-coupled to CM5 chip, Fab as analyte 1-10 nM, Langmuir model
# T6 sequence (P02769 25-607 limits assumed): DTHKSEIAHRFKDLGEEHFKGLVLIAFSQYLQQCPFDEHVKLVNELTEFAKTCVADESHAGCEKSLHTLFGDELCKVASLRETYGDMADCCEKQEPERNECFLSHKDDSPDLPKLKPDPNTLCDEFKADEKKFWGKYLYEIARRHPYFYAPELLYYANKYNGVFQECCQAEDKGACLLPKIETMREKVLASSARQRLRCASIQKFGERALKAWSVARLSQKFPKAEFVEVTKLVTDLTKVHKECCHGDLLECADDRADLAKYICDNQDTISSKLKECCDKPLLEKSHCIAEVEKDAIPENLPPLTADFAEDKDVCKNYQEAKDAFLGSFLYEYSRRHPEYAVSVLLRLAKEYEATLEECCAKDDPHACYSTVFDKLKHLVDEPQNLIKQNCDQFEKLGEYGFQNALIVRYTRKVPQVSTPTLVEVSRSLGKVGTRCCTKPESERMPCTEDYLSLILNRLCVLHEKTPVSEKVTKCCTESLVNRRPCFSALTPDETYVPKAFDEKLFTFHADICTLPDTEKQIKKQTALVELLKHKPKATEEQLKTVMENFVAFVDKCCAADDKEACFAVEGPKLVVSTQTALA
binder,measurement,setting,value
"anti-NV Fab G4 (Fab, V domains shown, also called Norwalk Fab G4) VH: EVQLEESGGGLVKPGGSLRLSCAASGFTFSHYVMYWVRQAPEKGLEWVSTISGSGSSTWYPDSVKGRFTVSRDNSKNTLYLQMNSLRGDDTAVYYCARLQGQLVYWGLGTLVTVS VL: ELQMTQSPSTLSASVGDRVTITCRASQGISSWLAWYQQKPGRAPKLLIYKSSTLESGVPSRFSGSGSGTEFTLTISSLQPDDFATYFCQQYSSNPPLTFGGGTKVEIKR",binding result,NV VP1 G365N mutant,no binding (tested: 5 ug/mL)
same,binding result,[1],no binding (tested: 5 ug/mL)
same,binding result,[2],no binding (tested: 5 ug/mL)
same,binding result,[3],no binding (tested: 5 ug/mL)
same,binding result,bovine serum albumin,no binding
same,Kd,[4],0.974 nM
same,koff,[4],0.00142 s⁻¹
same,kon,[4],1.46e+06 M⁻¹ s⁻¹
